Measured values reported in publication PMC11506546, “Tropomyosin Isoforms Segregate into Distinct Clusters on Single Actin Filaments” (Biomolecules, 2024).

Legend:
Details in all cases: both partners purified
[1] = molecular target: rabbit skeletal-muscle F-actin (rabbit, UniProt P68135 1-377); assay: co-sedimentation; 0.2-3.5 µM tropomyosin with 3 µM F-actin in T buffer (150 mM NaCl, 10 mM Tris-HCl pH 7.5, 2 mM MgCl2), 50 µL, 1 h at room temperature; 670,000 x g, 20 °C, 30 min; SDS-PAGE densitometry; Hill equation fit; apparent Kd
[2] = molecular target: β-actin filament (cytoskeletal actin, polymerized from G-actin) (UniProt P60709 1-375); assay: TIRF microscopy of tropomyosin-decorated single actin filaments; control experiments: the same Tpm isoform labeled with AF488 and with AF568 (0.015 µM of each) mixed with 1 µM G-actin in D buffer, polymerized with 50 mM NaCl for 5-10 min, 10% PEG 300; decorated filaments captured on PLL-PEG/BSA coverslips in microfluidic channels, washed with TIR50 buffer
[3] = molecular target: α-actin filament (muscle actin, polymerized from G-actin) (UniProt P68135 1-377); assay: as above

Binder	Kd [1]	ratio of Tpm in Ch1 (red, AF568)/Ch2 (green, AF488) on the filament, median [2]	ratio of Tpm in Ch1 (red, AF568)/Ch2 (green, AF488) on the filament, median [3]
Tpm1.6 AF488 (Tpm1.6 labeled at Cys-190 with Alexa Fluor 488 C5 maleimide) (natural protein, Alexa Fluor 488 C5 maleimide on Cys-190 (monomer labeling ratio approximately 95%)) not shown	1210 nM	–	–
Tpm1.6 AF568 (Tpm1.6 labeled at Cys-190 with Alexa Fluor 568 C5 maleimide) (natural protein, Alexa Fluor 568 C5 maleimide on Cys-190 (monomer labeling ratio approximately 95%)) not shown	2370 nM	0.7	0.7
